Positions of bridges follow the written chain, without caps; N, C: chain ends. Non-standard residues stand in square brackets, D forms with d. No end group written: not given here. *: point of attachment. Isobutyryl(2-imidazol-4-yl) = CC(C)(C(=O)*)c1c[nH]cn1; PEG = not defined here; Aib = CC(C)(N)C(=O)O
Tests used:
[1] = biological target: glucagon receptor (UniProt P47871 26-477, limits assumed); assay: cell-based or functional assay
[2] = biological target: GLP-1 receptor (UniProt P43220 24-463, limits assumed); assay: cell-based or functional assay

Chain of glucagon receptor (P47871 26-477 limits assumed): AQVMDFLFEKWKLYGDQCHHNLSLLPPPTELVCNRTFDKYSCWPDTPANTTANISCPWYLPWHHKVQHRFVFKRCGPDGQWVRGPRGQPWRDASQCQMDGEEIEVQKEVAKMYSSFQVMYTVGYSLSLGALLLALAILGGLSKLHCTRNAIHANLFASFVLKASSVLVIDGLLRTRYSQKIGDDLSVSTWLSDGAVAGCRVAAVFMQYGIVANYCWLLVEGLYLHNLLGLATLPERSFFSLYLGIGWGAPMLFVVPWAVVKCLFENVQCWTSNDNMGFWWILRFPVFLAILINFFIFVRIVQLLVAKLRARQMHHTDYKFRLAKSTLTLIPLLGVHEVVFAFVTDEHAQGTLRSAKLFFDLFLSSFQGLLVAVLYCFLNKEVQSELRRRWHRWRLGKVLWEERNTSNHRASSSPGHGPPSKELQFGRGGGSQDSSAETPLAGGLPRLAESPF

Row | Binder | % Potency Relative to Native [1] [%] | % Potency Relative to Native [2] [%]
1 | H[Aib]QGTFTSDYSKYLDEQAAKEFIAWLMNC(PEG)-NH2 (reading uncertain) [Chimera AIB2, Cys29 (SEQ ID NO: 487), parent w/PEG] | 5.6 | 54.3
2 | H[Aib]QGTFTSDYSKYLDEQAAKEFIAWLMNGGPSSGAPPPSC(PEG)-NH2 (lactam 16-20; reading uncertain) [Chimera AIB2, Gly29,30 Cys40 Cex Lactam (SEQ ID NO: 489), parent w/PEG] | 3.2 | 63.6
3 | H[Aib]QGTFTSDYSKYLDEQAAKEFIC(PEG)WLMNGGPSSGAPPPS-NH2 (lactam 16-20; reading uncertain) [Chimera AIB2, Gly29,30 Cys24 Cex Lactam (SEQ ID NO: 491), parent w/PEG] | 1.4 | 96.4
4 | H[Aib]QGTFTSDYSKYLDEQAAKEFIAWLMNGGPSSGAPPPSC(PEG)-NH2 (reading uncertain) [Chimera AIB2, Gly29,30 Cys40 Cex (SEQ ID NO: 488), parent w/PEG] | 0.3 | 68.8
5 | [Isobutyryl(2-imidazol-4-yl)]SQGTFTSDYSKYLDEQAAKEFICWLMNT-NH2 (lactam 16-20; SMILES CC[C@H](C)[C@H](NC(=O)[C@H](Cc1ccccc1)NC(=O)[C@H](CCC(=O)O)NC(=O)[C@@H]1CCCCNC(=O)CC[C@H](NC(=O)[C@H](CC(=O)O)NC(=O)[C@H](CC(C)C)NC(=O)[C@H](Cc2ccc(O)cc2)NC(=O)[C@H](CCCCN)NC(=O)[C@H](CO)NC(=O)[C@H](Cc2ccc(O)cc2)NC(=O)[C@H](CC(=O)O)NC(=O)[C@H](CO)NC(=O)[C@@H](NC(=O)[C@H](Cc2ccccc2)NC(=O)[C@@H](NC(=O)CNC(=O)[C@H](CCC(N)=O)NC(=O)[C@H](CO)NC(=O)C(C)(C)c2c[nH]cn2)[C@@H](C)O)[C@@H](C)O)C(=O)N[C@@H](CCC(N)=O)C(=O)N[C@@H](C)C(=O)N[C@@H](C)C(=O)N1)C(=O)N[C@@H](CS)C(=O)N[C@@H](Cc1c[nH]c2ccccc12)C(=O)N[C@@H](CC(C)C)C(=O)N[C@@H](CCSC)C(=O)N[C@@H](CC(N)=O)C(=O)N[C@H](C(N)=O)[C@@H](C)O) [Chimera DMIA1, Cys24 Lactam (SEQ ID NO: 505), parent w/o PEG] | 161 | 82.5
6 | H[Aib]QGTFTSDYSKYLDERAAKDFVC(PEG)WLMNGGPSSGAPPPS-NH2 (not fully specified; reading uncertain) [E16, K20AIB2, A18 Gly29,30 Cys24 Cex (SEQ ID NO: 496), parent w/PEG] | 0.1 | 88.5
7 | H[Aib]QGTFTSDYSKYLDEQAAKEFIAWLMNGGPSSGAPPPSC-NH2 (N-terminus assumed; SMILES CC[C@H](C)[C@H](NC(=O)[C@H](Cc1ccccc1)NC(=O)[C@H](CCC(=O)O)NC(=O)[C@H](CCCCN)NC(=O)[C@H](C)NC(=O)[C@H](C)NC(=O)[C@H](CCC(N)=O)NC(=O)[C@H](CCC(=O)O)NC(=O)[C@H](CC(=O)O)NC(=O)[C@H](CC(C)C)NC(=O)[C@H](Cc1ccc(O)cc1)NC(=O)[C@H](CCCCN)NC(=O)[C@H](CO)NC(=O)[C@H](Cc1ccc(O)cc1)NC(=O)[C@H](CC(=O)O)NC(=O)[C@H](CO)NC(=O)[C@@H](NC(=O)[C@H](Cc1ccccc1)NC(=O)[C@@H](NC(=O)CNC(=O)[C@H](CCC(N)=O)NC(=O)C(C)(C)NC(=O)[C@@H](N)Cc1c[nH]cn1)[C@@H](C)O)[C@@H](C)O)C(=O)N[C@@H](C)C(=O)N[C@@H](Cc1c[nH]c2ccccc12)C(=O)N[C@@H](CC(C)C)C(=O)N[C@@H](CCSC)C(=O)N[C@@H](CC(N)=O)C(=O)NCC(=O)NCC(=O)N1CCC[C@H]1C(=O)N[C@@H](CO)C(=O)N[C@@H](CO)C(=O)NCC(=O)N[C@@H](C)C(=O)N1CCC[C@H]1C(=O)N1CCC[C@H]1C(=O)N1CCC[C@H]1C(=O)N[C@@H](CO)C(=O)N[C@@H](CS)C(N)=O) [Chimera AIB2, Gly29,30 Cys40 Cex (SEQ ID NO: 488), parent w/o PEG] | 2.2 | 359
8 | H[Aib]QGTFTSDYSKYLDEQAAKEFIAWLMNGGPSSGAPPPSC-NH2 (lactam 16-20; N-terminus assumed; SMILES CC[C@H](C)[C@H](NC(=O)[C@H](Cc1ccccc1)NC(=O)[C@H](CCC(=O)O)NC(=O)[C@@H]1CCCCNC(=O)CC[C@H](NC(=O)[C@H](CC(=O)O)NC(=O)[C@H](CC(C)C)NC(=O)[C@H](Cc2ccc(O)cc2)NC(=O)[C@H](CCCCN)NC(=O)[C@H](CO)NC(=O)[C@H](Cc2ccc(O)cc2)NC(=O)[C@H](CC(=O)O)NC(=O)[C@H](CO)NC(=O)[C@@H](NC(=O)[C@H](Cc2ccccc2)NC(=O)[C@@H](NC(=O)CNC(=O)[C@H](CCC(N)=O)NC(=O)C(C)(C)NC(=O)[C@@H](N)Cc2c[nH]cn2)[C@@H](C)O)[C@@H](C)O)C(=O)N[C@@H](CCC(N)=O)C(=O)N[C@@H](C)C(=O)N[C@@H](C)C(=O)N1)C(=O)N[C@@H](C)C(=O)N[C@@H](Cc1c[nH]c2ccccc12)C(=O)N[C@@H](CC(C)C)C(=O)N[C@@H](CCSC)C(=O)N[C@@H](CC(N)=O)C(=O)NCC(=O)NCC(=O)N1CCC[C@H]1C(=O)N[C@@H](CO)C(=O)N[C@@H](CO)C(=O)NCC(=O)N[C@@H](C)C(=O)N1CCC[C@H]1C(=O)N1CCC[C@H]1C(=O)N1CCC[C@H]1C(=O)N[C@@H](CO)C(=O)N[C@@H](CS)C(N)=O) [Chimera AIB2, Gly29,30 Cys40 Cex Lactam (SEQ ID NO: 489), parent w/o PEG] | 14.2 | 170
9 | H[Aib]QGTFTSDYSKYLDEQAAKEFIC(PEG)WLMNGGPSSGAPPPS-NH2 (reading uncertain) [Chimera AIB2, Gly29,30 Cys24 Cex (SEQ ID NO: 490), parent w/PEG] | 0.2 | 95.4
10 | H[Aib]QGTFTSDYSKYLDEQAAKEFICWLMNGGPSSGAPPPS-NH2 (N-terminus assumed; SMILES CC[C@H](C)[C@H](NC(=O)[C@H](Cc1ccccc1)NC(=O)[C@H](CCC(=O)O)NC(=O)[C@H](CCCCN)NC(=O)[C@H](C)NC(=O)[C@H](C)NC(=O)[C@H](CCC(N)=O)NC(=O)[C@H](CCC(=O)O)NC(=O)[C@H](CC(=O)O)NC(=O)[C@H](CC(C)C)NC(=O)[C@H](Cc1ccc(O)cc1)NC(=O)[C@H](CCCCN)NC(=O)[C@H](CO)NC(=O)[C@H](Cc1ccc(O)cc1)NC(=O)[C@H](CC(=O)O)NC(=O)[C@H](CO)NC(=O)[C@@H](NC(=O)[C@H](Cc1ccccc1)NC(=O)[C@@H](NC(=O)CNC(=O)[C@H](CCC(N)=O)NC(=O)C(C)(C)NC(=O)[C@@H](N)Cc1c[nH]cn1)[C@@H](C)O)[C@@H](C)O)C(=O)N[C@@H](CS)C(=O)N[C@@H](Cc1c[nH]c2ccccc12)C(=O)N[C@@H](CC(C)C)C(=O)N[C@@H](CCSC)C(=O)N[C@@H](CC(N)=O)C(=O)NCC(=O)NCC(=O)N1CCC[C@H]1C(=O)N[C@@H](CO)C(=O)N[C@@H](CO)C(=O)NCC(=O)N[C@@H](C)C(=O)N1CCC[C@H]1C(=O)N1CCC[C@H]1C(=O)N1CCC[C@H]1C(=O)N[C@@H](CO)C(N)=O) [Chimera AIB2, Gly29,30 Cys24 Cex (SEQ ID NO: 490), parent w/o PEG] | 2.5 | 458
11 | H[Aib]QGTFTSDYSKYLDEQAAKEFIAWLMNC-NH2 (N-terminus assumed; SMILES CC[C@H](C)[C@H](NC(=O)[C@H](Cc1ccccc1)NC(=O)[C@H](CCC(=O)O)NC(=O)[C@H](CCCCN)NC(=O)[C@H](C)NC(=O)[C@H](C)NC(=O)[C@H](CCC(N)=O)NC(=O)[C@H](CCC(=O)O)NC(=O)[C@H](CC(=O)O)NC(=O)[C@H](CC(C)C)NC(=O)[C@H](Cc1ccc(O)cc1)NC(=O)[C@H](CCCCN)NC(=O)[C@H](CO)NC(=O)[C@H](Cc1ccc(O)cc1)NC(=O)[C@H](CC(=O)O)NC(=O)[C@H](CO)NC(=O)[C@@H](NC(=O)[C@H](Cc1ccccc1)NC(=O)[C@@H](NC(=O)CNC(=O)[C@H](CCC(N)=O)NC(=O)C(C)(C)NC(=O)[C@@H](N)Cc1c[nH]cn1)[C@@H](C)O)[C@@H](C)O)C(=O)N[C@@H](C)C(=O)N[C@@H](Cc1c[nH]c2ccccc12)C(=O)N[C@@H](CC(C)C)C(=O)N[C@@H](CCSC)C(=O)N[C@@H](CC(N)=O)C(=O)N[C@@H](CS)C(N)=O) [Chimera AIB2, Cys29 (SEQ ID NO: 487), parent w/o PEG] | 20.1 | 125
12 | H[Aib]QGTFTSDYSKYLDEQAAKEFICWLMNGGPSSGAPPPS-NH2 (lactam 16-20; N-terminus assumed; SMILES CC[C@H](C)[C@H](NC(=O)[C@H](Cc1ccccc1)NC(=O)[C@H](CCC(=O)O)NC(=O)[C@@H]1CCCCNC(=O)CC[C@H](NC(=O)[C@H](CC(=O)O)NC(=O)[C@H](CC(C)C)NC(=O)[C@H](Cc2ccc(O)cc2)NC(=O)[C@H](CCCCN)NC(=O)[C@H](CO)NC(=O)[C@H](Cc2ccc(O)cc2)NC(=O)[C@H](CC(=O)O)NC(=O)[C@H](CO)NC(=O)[C@@H](NC(=O)[C@H](Cc2ccccc2)NC(=O)[C@@H](NC(=O)CNC(=O)[C@H](CCC(N)=O)NC(=O)C(C)(C)NC(=O)[C@@H](N)Cc2c[nH]cn2)[C@@H](C)O)[C@@H](C)O)C(=O)N[C@@H](CCC(N)=O)C(=O)N[C@@H](C)C(=O)N[C@@H](C)C(=O)N1)C(=O)N[C@@H](CS)C(=O)N[C@@H](Cc1c[nH]c2ccccc12)C(=O)N[C@@H](CC(C)C)C(=O)N[C@@H](CCSC)C(=O)N[C@@H](CC(N)=O)C(=O)NCC(=O)NCC(=O)N1CCC[C@H]1C(=O)N[C@@H](CO)C(=O)N[C@@H](CO)C(=O)NCC(=O)N[C@@H](C)C(=O)N1CCC[C@H]1C(=O)N1CCC[C@H]1C(=O)N1CCC[C@H]1C(=O)N[C@@H](CO)C(N)=O) [Chimera AIB2, Gly29,30 Cys24 Cex Lactam (SEQ ID NO: 491), parent w/o PEG] | 25.2 | 382
13 | [Isobutyryl(2-imidazol-4-yl)]SQGTFTSDYSKYLDEQAAKEFIC(PEG)WLMNT-NH2 (lactam 16-20; reading uncertain) [Chimera DMIA1, Cys24 Lactam (SEQ ID NO: 505), parent w/PEG] | 19.1 | 12.5
14 | H[Aib]QGTFTSDYSKYLDERAAKDFVC(PEG)WLMNT-NH2 (reading uncertain) [E16, K20AIB2, A18 Cys24 (SEQ ID NO: 492), parent w/PEG] | 1.1 | 73.5

From patent US20120172295A1 (INDIANA UNIVERSITY RESEARCH AND TECHNOLOGY, published 2012)
